From publication PMC10136936

Molecular target: Recombinant hemagglutinin from influenza A/California/04/2009 (H1N1), amino acids 1-519 (Influenza A/California/04/2009 (H1N1)) (UniProt C3W5S1)
Assay: SEC

## Recombinant hemagglutinin from influenza A/California/04/2009 (H1N1), amino acids 1-519 (from UniProt C3W5S1 1-519) (domain or fragment)
  stoichiometry N: 3
